Several values for one entry are separate records, joined by “and”; a condition that tells them apart may be missing. Equal values may be shown once.

In patent US5082772A, “Process for preparing deacetylcephalosporin C” (priority 1988, dated 1992) one finds half-life, isoelectric points and Vmax data, which are given here for three molecules.

The nature of data set [1]: Stability (half-life) of native enzyme. Format: physicochemical, Streptomyces clavuligerus. The text has this:
The purified native enzyme obtained from cell-free extracts of S. clavuligerus can be partially stabilized by phenylmethylsulfonyl fluoride and ethanol.

A short description of data set [2]: Isoelectric points of purified enzyme. Format: physicochemical, Streptomyces clavuligerus. The following applies: two distinct points.
Data set [3] addresses T1, recombinantly produced DAOC synthase (Streptomyces clavuligerus, UniProt P18548).
T1 construct: made in house; host or cells: Escherichia coli K12 JM109 (plasmid pOW382)
In words: Kinetics of recombinant enzyme (Lineweaver-Burk). The data set is classed as biochemical. To be noted: pH 7.0, 50 mM HEPES buffer, 36° C. On the procedure:
The kinetics of the native enzyme and recombinant enzyme were determined under the optimal reaction conditions for the enzyme, i.e., at pH 7.0 in 50 mM HEPES buffer at 36° C.

B1: purified native enzyme: DAOC synthase obtained from cell-free extracts of S. clavuligerus (protein, UniProt P18548 1-311, looked up)
Deacetoxycephalosporin C …: MDTTVPTFSLAELQQGLHQDEFRRCLRDKGLFYLTDCGLTDTELKSAKDLVIDFFEHGSEAEKRAVTSPVPTMRRGFTGLESESTAQITNTGSYSDYSMCYSMGTADNLFPSGDFERIWTQYFDRQYTASRAVAREVLRATGTEPDGGVEAFLDCEPLLRFRYFPQVPEHRSAEEQPLRMAPHYDLSMVTLIQQTPCANGFVSLQAEVGGAFTDLPYRPDAVLVFCGAIATLVTGGQVKAPRHHVAAPRRDQIAGSSRTSSVFFLRPNADFTFSVPLARECGFDVSLDGETATFQDWIGGNYVNIRRTSKA
Turning to B1, the half-life in data set [1] (not stabilized) stood at 20 h; in data set [1] (stabilized by phenylmethylsulfonyl fluoride and ethanol), 48 h.

B2: purified enzyme: purified deacetoxycephalosporin C synthase of S. clavuligerus (protein, UniProt P18548 1-311, looked up)
Deacetoxycephalosporin C …: MDTTVPTFSLAELQQGLHQDEFRRCLRDKGLFYLTDCGLTDTELKSAKDLVIDFFEHGSEAEKRAVTSPVPTMRRGFTGLESESTAQITNTGSYSDYSMCYSMGTADNLFPSGDFERIWTQYFDRQYTASRAVAREVLRATGTEPDGGVEAFLDCEPLLRFRYFPQVPEHRSAEEQPLRMAPHYDLSMVTLIQQTPCANGFVSLQAEVGGAFTDLPYRPDAVLVFCGAIATLVTGGQVKAPRHHVAAPRRDQIAGSSRTSSVFFLRPNADFTFSVPLARECGFDVSLDGETATFQDWIGGNYVNIRRTSKA
Turning to B2, in data set [2], the isoelectric points was 5.3±0.2 and 6.1±0.2.

B3: recombinant synthase: S. clavuligerus DAOC synthase (expandase) produced in recombinant E. coli and purified (protein, UniProt P18548 1-311, looked up)
Deacetoxycephalosporin C …: MDTTVPTFSLAELQQGLHQDEFRRCLRDKGLFYLTDCGLTDTELKSAKDLVIDFFEHGSEAEKRAVTSPVPTMRRGFTGLESESTAQITNTGSYSDYSMCYSMGTADNLFPSGDFERIWTQYFDRQYTASRAVAREVLRATGTEPDGGVEAFLDCEPLLRFRYFPQVPEHRSAEEQPLRMAPHYDLSMVTLIQQTPCANGFVSLQAEVGGAFTDLPYRPDAVLVFCGAIATLVTGGQVKAPRHHVAAPRRDQIAGSSRTSSVFFLRPNADFTFSVPLARECGFDVSLDGETATFQDWIGGNYVNIRRTSKA
modifications: recombinant, expressed in E. coli
notes: S. clavuligerus DAOC synthase (expandase) produced in recombinant E. coli and purified
For the molecule B3, the Vmax in data set [3] was 0.432 μmol DAOC formed/min/mg protein.

Broadly, the half-life is how long it takes for the measured level to halve. A lower half-life goes with fast loss.
